Assay results reported in publication PMC6733935, “A convenient and efficient total solid-phase synthesis of DOTA-functionalized tumor-targeting peptides for PET imaging of cancer” (EJNMMI Research, 2019).
Numbered stars: 1 amine (or outer) side, 2 acyl side, 3 side chain; on linkers, the order of the positions; unused ones are H or OH. Square brackets hold non-standard residues; d marks the D form. Peptide text beside a SMILES is read from it. * marks the point of attachment. DOTA = O=C(O)CN1CCN(CC(=O)O)CCN(CC(=O)*)CCN(CC(=O)O)CC1; Cha = N[C@@H](CC1CCCCC1)C(=O)O; X1 = O=C(CCC(=O)[*:2])CN[*:1]; Nle = CCCC[C@H](N)C(=O)O; Ahx = NCCCCCC(=O)O

Columns and labels:
[1] = target: T1, BN/GRP receptor-positive T47D human breast cancer cells (Homo sapiens, UniProt P30550); test: Saturation binding assay on T47D cells; conditions: n = 3-5 experiments; for Bmax (apparent number of binding sites per cell): SD < 15%; for Kd: ~300,000 cells, 0.1-25 nM radiopeptide, 60 min, room temperature, mean ± SD
T1 construct: BN/GRP receptor-positive MDA-MB-231, MCF7, T47D human breast cancer, and PC3 human prostate cancer lines; host or cells: MDA-MB-231, MCF7, T47D (human breast cancer), PC3 (human prostate cancer); intact cells
Protocol: (§1) The cell binding of ^68Ga-radiolabeled peptides into BN/GRP receptor-positive MDA-MB-231, MCF7, T47D human breast cancer, and PC3 human prostate cancer lines (American Type Culture Collection, Rockville, MD, USA) was performed according to the method described previously. In brief, ∼ 300,000 cells (in 300 μL in low-serum media) were incubated with various amounts of radiopeptides, ranging between 0.1 and 25 nM of peptide (prepared from the serial dilutions of HPLC-purified radiopeptides), in duplicate for 60 min at room temperature. The initial concentrations of ^68Ga-labeled peptides were determined according to a well-established HPLC technique with simultaneous detection by UV absorbance. As the amount of BN peptide in the reaction mixture was too small to be detected by UV absorption at 220 nm, the radioactive peptide chromatograms from the HPLC analysis were compared (with UV chromatograms) with those of known concentrations of the corresponding nonradioactive peptides for the mass determination. Incubation was terminated by dilution with cold saline (300 μL) and the cells were pelleted by centrifugation. The cell pellets was then rapidly washed with cold saline to remove any unbound peptide and centrifuged to collect supernatants. Radioactivity in the cell pellet and the washings was measured in a γ-counter. Non-specific binding was determined in the presence of ~ 200-fold molar excess of unlabeled BN peptide. Specific binding is calculated by subtracting the non-specifically bound radioactivity from that of the total binding. The dissociation constant (Kd) was calculated using a plot of cell bound activity versus the concentration of the radioligand using GraphPad Prism software (GraphPad Software Inc., San Diego, CA, USA).

in vivo = test: in vivo; design: species or system Balb/c mice; conditions: Balb/c, mouse, iv
Protocol: Approval for the animal protocol used in this study was obtained from the Institutional Animal Care and Use Committee. Animal studies were conducted according to the international regulations governing the safe and proper use of laboratory animals. In vivo biodistribution were performed on healthy Balb/c mice (n = 3–5 in each group, body weight 19–22 g) at 1 and 2 h after intravenous injection of the HPLC-purified radiopeptide (100 μL, 15–20 μCi, total peptide dose ~ 20 ng) via the lateral tail vein. The mice were sacrificed by cervical dislocation at specified time points and blood samples were withdrawn with a syringe from the heart. Major organs such as lungs, stomach, spleen, pancreas, intestines, liver, kidneys, etc. were isolated, weighed, and radioactivity in each organs and tissues were measured using a γ-scintillation counter. Uptake of radioactivity in the tissues and organs was expressed as the percent injected dose per gram (% ID/g) of tissue/organ, which was calculated by comparison with standard solutions representing 10% of the injected dose per animal. For the clearance studies, radioactivity in the urine with bladder and feces is expressed as the percent of the injected dose per tissue (% ID). Values are expressed as mean ± SD for a group of 3-5 animals at each time point.

[2] = target: T2, BN/GRP receptor-positive PC3 human prostate cancer cells (Homo sapiens, UniProt P30550); test: Saturation binding assay on PC3 cells; conditions: n = 3-5 experiments; for Bmax (apparent number of binding sites per cell): SD < 15%; for Kd: ~300,000 cells, 0.1-25 nM radiopeptide, 60 min, room temperature, mean ± SD
T2 construct: BN/GRP receptor-positive MDA-MB-231, MCF7, T47D human breast cancer, and PC3 human prostate cancer lines; host or cells: MDA-MB-231, MCF7, T47D (human breast cancer), PC3 (human prostate cancer); intact cells
Protocol: as §1

MDA-MB-231 tumors = test: in vivo; type: in vivo, nude mice; conditions: for Radioactivity in Urine + bladder / Uptake in Blood / Uptake in Intestines (measured without their contents) / Uptake in Kidneys / Uptake in Liver / Uptake in Lungs / Uptake in Muscle / Uptake in Pancreas / Uptake in Spleen / Uptake in Stomach: female, nude, mouse, in vivo; for Uptake in Tumor: nude mice with MDA-MB-231 tumors, mean ± SD, n = 3-5
Protocol: BN/GRP receptor-positive MDA-MB-231 and PC3 cell lines (American Type Culture Collection, Rockville, USA) were grown as monolayers at 37 °C in a humidified atmosphere containing RPMI-1640 culture media with 10% fetal bovine serum (FBS) in tissue culture flasks. Twenty-four hours prior to conducting the tumor implantation, the media was replaced with RPMI-1640/10% FBS. The cells were grown to 80-90% confluency and harvested by trypsinization. After centrifugation, about 50 million cells were suspended in 1 mL media for implantation into mice. To prepare cells for inoculation, MDA-MB-231 or PC3 cancer cells with media were centrifuged, the media decanted, and the cell pellet was mixed with phosphate-buffered saline (PBS) to reach a concentration of approximately 5 million cells per 100 μL PBS. Human MDA-MB-231 breast cancer xenografts female mouse models were used for in vivo tumor-targeting experiments. For the implantation of tumor xenografts, approximately five million MDA-MB-231 cells in suspension of 100 μL sterile PBS were injected subcutaneously into the left thigh of each mouse. Tumors were allowed to grow for 4-6 weeks by which tumors had reached weights of 200-300 mg. After sufficient growth of tumors, animals were injected with 20-30 μCi of the radiotracers and the animals were sacrificed at specified time points. The uptake of ^68Ga-radiolabeled peptides in the tumors and other major body organs was calculated by γ-counting as described above.

## CCCC[C@H](NC(=O)[C@H](Cc1c[nH]cn1)NC(=O)[C@H](CC1CCCCC1)NC(=O)[C@@H](NC(=O)[C@H](C)NC(=O)[C@H](Cc1c[nH]c2ccccc12)NC(=O)[C@H](CCC(N)=O)NC(=O)[C@H](CS)NC(=O)CNC(=O)CNC(=O)CCC(=O)CNC(=O)CN1CCN(CC(=O)O)CCN(CC(=O)O)CCN(CC(=O)O)CC1)C(C)C)C(=O)N[C@@H](CCSC)C(N)=O [^68Ga-DOTA-ALA-BN Tris-, metal not drawn] ({DOTA}-[X1]GGCQWAV[Cha]H[Nle]M-NH2)
[1]
  Bmax (apparent number of binding sites per cell): 9.68 × 10^4 sites/cell
  Kd: 16 ± 4.01 nM
In vivo; 1 h
  %ID excreted in Feces: 1.03 ± 0.12 %ID
  %ID excreted in Urine: 71.0 ± 12.45 %ID
  Uptake in Blood: 0.88 ± 0.14 %ID/g
  Uptake in Bone: 0.14 ± 0.03 %ID/g
  Uptake in Intestines (measured without their contents): 0.85 ± 0.13 %ID/g
  Uptake in Kidneys: 3.83 ± 0.67 %ID/g
  Uptake in Liver: 1.78 ± 0.26 %ID/g
  Uptake in Lungs: 0.42 ± 0.10 %ID/g
  Uptake in Pancreas: 0.98 ± 0.13 %ID/g
  Uptake in Spleen: 0.14 ± 0.03 %ID/g
  Uptake in Stomach: 1.44 ± 0.26 %ID/g
In vivo; 2 h
  %ID excreted in Feces: 0.77 ± 0.10 %ID
  %ID excreted in Urine: 78.0 ± 15.0 %ID
  Uptake in Blood: 0.27 ± 0.02 %ID/g
  Uptake in Bone: 0.08 ± 0.01 %ID/g
  Uptake in Intestines (measured without their contents): 0.64 ± 0.14 %ID/g
  Uptake in Kidneys: 2.76 ± 0.49 %ID/g
  Uptake in Liver: 0.86 ± 0.17 %ID/g
  Uptake in Lungs: 0.19 ± 0.03 %ID/g
  Uptake in Pancreas: 0.82 ± 0.12 %ID/g
  Uptake in Spleen: 0.10 ± 0.02 %ID/g
  Uptake in Stomach: 0.53 ± 0.09 %ID/g
[2]
  Bmax (apparent number of binding sites per cell): 2.63 × 10^5 sites/cell
  Kd: 13.5 ± 2.53 nM
MDA-MB-231 tumors; 1 h
  Radioactivity in Urine + bladder: 54.0 ± 5.78 % injected dose per tissue
  Uptake in Blood: 0.85 ± 0.15 % ID/g
  Uptake in Intestines (measured without their contents): 1.05 ± 0.18 % ID/g
  Uptake in Kidneys: 5.12 ± 0.69 % ID/g
  Uptake in Liver: 2.31 ± 0.38 % ID/g
  Uptake in Lungs: 2.35 ± 0.33 % ID/g
  Uptake in Muscle: 0.39 ± 0.03 % ID/g
  Uptake in Pancreas: 1.19 ± 0.15 % ID/g
  Uptake in Spleen: 0.44 ± 0.06 % ID/g
  Uptake in Stomach: 0.83 ± 0.21 % ID/g
MDA-MB-231 tumors; 2 h
  Radioactivity in Urine + bladder: 61.0 ± 7.10 % injected dose per tissue
  Uptake in Blood: 0.30 ± 0.04 % ID/g
  Uptake in Intestines (measured without their contents): 0.73 ± 0.13 % ID/g
  Uptake in Kidneys: 3.56 ± 0.50 % ID/g
  Uptake in Liver: 1.50 ± 0.27 % ID/g
  Uptake in Lungs: 0.70 ± 0.16 % ID/g
  Uptake in Muscle: 0.23 ± 0.02 % ID/g
  Uptake in Pancreas: 0.71 ± 0.10 % ID/g
  Uptake in Spleen: 0.35 ± 0.03 % ID/g
  Uptake in Stomach: 0.37 ± 0.07 % ID/g
MDA-MB-231 tumors; 1 h p.i.
  Uptake in Tumor: 1.78 ± 0.40 % ID/g
MDA-MB-231 tumors; 2 h p.i.
  Uptake in Tumor: 1.25 ± 0.21 % ID/g

## CCCC[C@H](NC(=O)[C@H](Cc1c[nH]cn1)NC(=O)[C@H](CC1CCCCC1)NC(=O)[C@@H](NC(=O)[C@H](C)NC(=O)[C@H](Cc1c[nH]c2ccccc12)NC(=O)[C@H](CCC(N)=O)NC(=O)[C@H](CS)NC(=O)CNC(=O)CNC(=O)CCCCCNC(=O)CN1CCN(CC(=O)O)CCN(CC(=O)O)CCN(CC(=O)O)CC1)C(C)C)C(=O)N[C@@H](CCSC)C(N)=O [^68Ga-DOTA-Ahx-BN Tris-, metal not drawn] ({DOTA-Ahx}-GGCQWAV[Cha]H[Nle]M-NH2)
[1]
  Bmax (apparent number of binding sites per cell): 4.91 × 10^5 sites/cell
  Kd: 14.5 ± 2.4 nM
In vivo; 1 h
  %ID excreted in Feces: 0.83 ± 0.19 %ID
  %ID excreted in Urine: 74.0 ± 8.03 %ID
  Uptake in Blood: 0.29 ± 0.05 %ID/g
  Uptake in Bone: 0.17 ± 0.03 %ID/g
  Uptake in Intestines (measured without their contents): 0.67 ± 0.12 %ID/g
  Uptake in Kidneys: 2.89 ± 0.41 %ID/g
  Uptake in Liver: 1.12 ± 0.30 %ID/g
  Uptake in Lungs: 0.36 ± 0.10 %ID/g
  Uptake in Pancreas: 2.0 ± 0.27 %ID/g
  Uptake in Spleen: 0.09 ± 0.01 %ID/g
  Uptake in Stomach: 1.71 ± 0.19 %ID/g
In vivo; 2 h
  %ID excreted in Feces: 0.69 ± 0.10 %ID
  %ID excreted in Urine: 69.0 ± 5.15 %ID
  Uptake in Blood: 0.17 ± 0.02 %ID/g
  Uptake in Bone: 0.09 ± 0.01 %ID/g
  Uptake in Intestines (measured without their contents): 0.43 ± 0.09 %ID/g
  Uptake in Kidneys: 1.63 ± 0.24 %ID/g
  Uptake in Liver: 0.53 ± 0.09 %ID/g
  Uptake in Lungs: 0.22 ± 0.05 %ID/g
  Uptake in Pancreas: 1.25 ± 0.13 %ID/g
  Uptake in Spleen: 0.06 ± 0.0 %ID/g
  Uptake in Stomach: 0.48 ± 0.06 %ID/g
[2]
  Bmax (apparent number of binding sites per cell): 4.88 × 10^5 sites/cell
  Kd: 10.4 ± 1.71 nM
MDA-MB-231 tumors; 1 h
  Radioactivity in Urine + bladder: 66.0 ± 6.60 % injected dose per tissue
  Uptake in Blood: 0.70 ± 0.12 % ID/g
  Uptake in Intestines (measured without their contents): 0.89 ± 0.12 % ID/g
  Uptake in Kidneys: 4.85 ± 0.43 % ID/g
  Uptake in Liver: 2.20 ± 0.33 % ID/g
  Uptake in Lungs: 1.86 ± 0.14 % ID/g
  Uptake in Muscle: 0.28 ± 0.04 % ID/g
  Uptake in Pancreas: 1.30 ± 0.18 % ID/g
  Uptake in Spleen: 0.33 ± 0.02 % ID/g
  Uptake in Stomach: 0.87 ± 0.11 % ID/g
MDA-MB-231 tumors; 2 h
  Radioactivity in Urine + bladder: 68.0 ± 7.55 % injected dose per tissue
  Uptake in Blood: 0.60 ± 0.09 % ID/g
  Uptake in Intestines (measured without their contents): 0.50 ± 0.10 % ID/g
  Uptake in Kidneys: 3.74 ± 0.24 % ID/g
  Uptake in Liver: 1.83 ± 0.24 % ID/g
  Uptake in Lungs: 0.61 ± 0.07 % ID/g
  Uptake in Muscle: 0.20 ± 0.02 % ID/g
  Uptake in Pancreas: 0.75 ± 0.11 % ID/g
  Uptake in Spleen: 0.16 ± 0.01 % ID/g
  Uptake in Stomach: 0.60 ± 0.07 % ID/g
MDA-MB-231 tumors; 1 h p.i.
  Uptake in Tumor: 2.09 ± 0.33 % ID/g
MDA-MB-231 tumors; 2 h p.i.
  Uptake in Tumor: 1.62 ± 0.18 % ID/g
